Here are results for 3 molecules from patent publication US10653796B2, “Liposomes containing cell penetrating peptides and tetraetherlipids for the oral delivery of macromolecules” (Universität Heidelberg, priority 2015, dated 2020).

Series [1] can be described thus: Radioactivity at determined time points after oral application of radiolabeled substances. It counts as in vivo. Particulars: radiolabeled substance.
The nature of series [2]: Oral availability of radiolabeled Adalimumab. As to conditions: liposomes containing 1 mol-% cyclic CPP-conjugate vs radiolabeled free antibody, 6 h, rats. It counts as in vivo, male Wistar rats. As to the method: The animal study was performed according to local authorities using male Wistar rats with a body weight of about 200-250 g. For the determination of the bioavailability (absolute), the antibody Adalimumab (Humira®) was radiolabeled with ^131I and incorporated into the liposomal formulation containing 1 mol-% of the cyclic CPP-phospholipid-conjugate and compared with the free antibody as described previously. After 6 h, the blood levels were measured by direct counting of the radiolabeled sample. Prior to 12 h of the experiment, the rats were kept without food, but with free access to water. Oral application of the liposomes and the radiolabeled free antibody took place by gavage. The blood was removed, weighed and the radioactivity was measured using a Berthold LB 951 G counter in comparison with standards. The blood-associated activity was related to the total injected dose (ID) and expressed as a percentage of the total injected dose per gram of tissue (% ID/g) (FIG. 16).

A short description of series [3]: Bioavailability (absolute) of oral liposomal Vancomycin versus i.v. As to conditions: male, Wistar, rat, whole blood; oral liposomal formulation containing 1 mol-% of the cyclic CPP-liposomes, rats; read-out: bioavailability (absolute) in comparison with the i.v. application. It counts as in vivo. As to the method: The animal study was performed according to local authorities using male Wistar rats with a body weight of about 200-250 g. For the determination of the bioavailability (absolute) the glycopeptide antibiotic Vancomycin was radiolabeled with ^131I and incorporated into the liposomal formulation containing 1 mol-% of the cyclic CPP-phospholipid-conjugate and compared with Vancomycin i.v. as described previously. At several time points, the blood levels of Vancomycin were measured by direct counting of the radiolabeled sample. Briefly, groups (n≥3) of male Wistar rats were formed. Prior to 12 h of the experiment, the rats were kept without food, but with free access to water. Oral application of the liposomes took place by gavage. The blood was removed, weighed and the radioactivity was measured using a Berthold LB 951 G counter in comparison with standards. The blood-associated activity was related to the total injected dose (ID) and expressed as a percentage of the total injected dose per gram of tissue (% ID/g).

In the case of Adalimumab, the “mucosal uptake by the liposomal formulations” value in series [1] was “strongly enhanced mucosal uptake”. In series [2], the oral availability result is recorded as “strong increase”. Take `CN[C@H](CC(C)C)C(=O)N[C@H]1C(=O)N[C@@H](CC(N)=O)C(=O)N[C@H]2C(=O)N[C@H]3C(=O)N[C@H](C(=O)N[C@H](C(=O)O)c4cc(O)cc(O)c4-c4cc3ccc4O)[C@H](O)c3ccc(c(Cl)c3)Oc3cc2cc(c3O[C@@H]2O[C@H](CO)[C@@H](O)[C@H](O)[C@H]2O[C@H]2C[C@](C)(N)[C@H](O)[C@H](C)O2)Oc2ccc(cc2Cl)[C@H]1O` [Vancomycin]: the bioavailability in series [3] is at most 50%. `CCCCCCCCCCCCCCCC(=O)N[C@@H](CCC(=O)NCCCC[C@H](NC(=O)[C@H](C)NC(=O)[C@H](C)NC(=O)[C@H](CCC(N)=O)NC(=O)CNC(=O)[C@H](CCC(=O)O)NC(=O)[C@H](CC(C)C)NC(=O)[C@H](Cc1ccc(O)cc1)NC(=O)[C@H](CO)NC(=O)[C@H](CO)NC(=O)[C@@H](NC(=O)[C@H](CC(=O)O)NC(=O)[C@H](CO)NC(=O)[C@@H](NC(=O)[C@H](Cc1ccccc1)NC(=O)[C@@H](NC(=O)CNC(=O)[C@H](CCC(=O)O)NC(=O)[C@H](C)NC(=O)[C@@H](N)Cc1cnc[nH]1)[C@@H](C)O)[C@@H](C)O)C(C)C)C(=O)N[C@@H](CCC(=O)O)C(=O)N[C@@H](Cc1ccccc1)C(=O)N[C@H](C(=O)N[C@@H](C)C(=O)N[C@@H](Cc1c[nH]c2ccccc12)C(=O)N[C@@H](CC(C)C)C(=O)N[C@H](C(=O)N[C@@H](CCCNC(=N)N)C(=O)NCC(=O)N[C@@H](CCCNC(=N)N)C(=O)NCC(=O)O)C(C)C)[C@@H](C)CC)C(=O)O` [Liraglutide]: the “mucosal uptake by the liposomal formulations” value in series [1] is recorded as “strongly enhanced mucosal uptake”.

The bioavailability is dose-corrected exposure relative to a reference, in per cent.
